Tests used:
[1] = molecular target: T1, f:GFP-WRN (Werner syndrome protein) (Homo sapiens, UniProt Q14191 1-1432); experiment: single-molecule TIRF GFP photobleaching; no ATP; dimer preferred, heterogeneous up to 4 steps; 1 nM RPA did not change conclusion; Binding buffer, pH and temperature not in the material; 24 nM GFP-WRN in the forked-DNA unwinding assay (1 nM RPA); NaCl tested at 15, 50 and 150 mM on the replication fork; GFP imaging without oxygen scavenger; settings: protein: recombinant; tags: N-terminal FLAG and GFP; chain copies: 2; label: Cy3 and Cy5 in the single-stranded overhangs; 5' biotin on bottom strand; fork 1:2, 3' ssDNA arm on top and 5' ssDNA arm on bottom
[2] = molecular target: T1, f:GFP-WRN (Werner syndrome protein); experiment: single-molecule TIRF GFP photobleaching; no ATP; tetramer (binomial n=4); Binding buffer, pH and temperature not in the material; 24 nM GFP-WRN in the forked-DNA unwinding assay (1 nM RPA); NaCl tested at 15, 50 and 150 mM on the replication fork; GFP imaging without oxygen scavenger; settings: protein: recombinant; tags: N-terminal FLAG and GFP; chain copies: 2; label: Cy3 and Cy5 FRET pair; 5' biotin on leading parent; four-strand fork 1:3 2:4 3:4; 11-nt leading gap, 2-nt lagging gap; heterologous bases near junction
[3] = molecular target: T1, f:GFP-WRN (Werner syndrome protein); experiment: single-molecule TIRF GFP photobleaching; 1 mM ATP-Mg2+, 2 min; active molecules dimeric; Binding buffer, pH and temperature not in the material; 24 nM GFP-WRN in the forked-DNA unwinding assay (1 nM RPA); NaCl tested at 15, 50 and 150 mM on the replication fork; GFP imaging without oxygen scavenger; settings: protein: recombinant; tags: N-terminal FLAG and GFP; chain copies: 2; label: Cy3 and Cy5 FRET pair; 5' biotin on leading parent; four-strand fork 1:3 2:4 3:4; heterologous distal arm ends

T1 sequence (Q14191 whole entry): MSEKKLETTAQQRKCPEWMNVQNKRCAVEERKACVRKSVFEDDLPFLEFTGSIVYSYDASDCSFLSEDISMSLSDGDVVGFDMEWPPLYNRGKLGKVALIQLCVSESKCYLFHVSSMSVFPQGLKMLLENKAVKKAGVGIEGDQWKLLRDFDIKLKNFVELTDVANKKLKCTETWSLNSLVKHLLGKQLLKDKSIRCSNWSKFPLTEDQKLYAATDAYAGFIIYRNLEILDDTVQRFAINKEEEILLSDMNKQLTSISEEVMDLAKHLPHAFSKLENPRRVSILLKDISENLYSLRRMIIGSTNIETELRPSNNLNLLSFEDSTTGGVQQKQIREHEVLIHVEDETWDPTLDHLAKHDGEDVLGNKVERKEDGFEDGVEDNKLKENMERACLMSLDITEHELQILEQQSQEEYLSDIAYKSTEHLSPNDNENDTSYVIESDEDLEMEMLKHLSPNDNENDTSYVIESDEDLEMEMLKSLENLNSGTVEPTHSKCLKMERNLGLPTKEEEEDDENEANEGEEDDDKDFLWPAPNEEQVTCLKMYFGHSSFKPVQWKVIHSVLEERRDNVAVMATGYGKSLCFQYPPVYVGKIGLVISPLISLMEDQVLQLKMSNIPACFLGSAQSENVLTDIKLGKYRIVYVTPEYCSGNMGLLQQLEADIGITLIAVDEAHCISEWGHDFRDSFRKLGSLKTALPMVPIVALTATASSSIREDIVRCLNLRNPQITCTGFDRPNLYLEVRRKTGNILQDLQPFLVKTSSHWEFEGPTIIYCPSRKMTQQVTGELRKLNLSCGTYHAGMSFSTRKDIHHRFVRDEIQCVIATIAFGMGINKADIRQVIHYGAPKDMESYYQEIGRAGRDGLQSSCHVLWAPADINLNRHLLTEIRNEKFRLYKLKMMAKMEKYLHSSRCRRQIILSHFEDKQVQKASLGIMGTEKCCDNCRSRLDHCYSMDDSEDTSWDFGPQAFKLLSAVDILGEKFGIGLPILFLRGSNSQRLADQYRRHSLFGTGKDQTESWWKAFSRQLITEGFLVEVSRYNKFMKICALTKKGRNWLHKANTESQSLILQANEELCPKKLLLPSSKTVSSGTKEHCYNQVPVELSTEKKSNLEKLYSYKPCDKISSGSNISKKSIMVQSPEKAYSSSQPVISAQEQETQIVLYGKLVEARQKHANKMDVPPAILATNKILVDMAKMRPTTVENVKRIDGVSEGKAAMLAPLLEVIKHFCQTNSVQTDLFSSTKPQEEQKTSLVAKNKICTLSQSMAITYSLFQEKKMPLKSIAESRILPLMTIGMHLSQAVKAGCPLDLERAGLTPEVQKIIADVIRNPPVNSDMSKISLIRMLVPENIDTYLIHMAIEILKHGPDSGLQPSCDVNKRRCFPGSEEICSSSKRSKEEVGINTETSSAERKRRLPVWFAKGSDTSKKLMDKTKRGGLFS

B1: Forked DNA (Figure 1A) (structured_DNA)
DNA 1: GAGAAGCACGCTGCCGAATTCTACCAGTGCCTTGCTAGGACATGTTTGCCTTTTTTTTTTTTTTTTTTTTTTTTTTTTTT
DNA 2: TTTTTTTTTTTTTTTTTTTTTTTTGGCAAACATGTCCTAGCAAGGCACTGGTAGAATTCGGCAGCGTGCTTCTC
modifications: amino C6 dT at dye sites
B1: binds [1].

B2: Model replication fork (Figure 1B) (structured_DNA)
DNA 1: TCGACAGGTCATGGCCGTACATGATATCCTCGAGCGGTCCTGTTGCAACTTA
DNA 2: TCAGAGTGTTAAGTTGCAACAGGACCGCTCGAGGATATCATGTACGGCCATGACCTGTCG
DNA 3: TGTTAACCCTAACCCTAAGAATTCGGCTTAAGTGAGTGTTAAGTTGCAACAGGACCGCTCGAGGATATCATGTACGGCCATGACCTGTCGA
DNA 4: CGACAGGTCATGGCCGTACATGATATCCTCGAGCGGTCCTGTTGCAACTTAACACTCTGAATAGCCGAATTCTTAGGGTTAGGGTTAACA
modifications: amino C6 dT at dye sites of the daughter strands
B2: binds [2].

B3: Replication fork with 15 bp non-homologous region (Figure 3D) (structured_DNA)
DNA 1: TCGACAGGTCATGGCCGTACATGATATCCTCGAGCGGTCCTGTTGC
DNA 2: TCAGAGTGTGCAACAGGACCGCTCGAGGATATCATGTACGATAGCTTGGCCGCAT
DNA 3: TGTTAACCCTAACCCTAAGAATTCGGCTTAAGTGAGTGTGCAACAGGACCGCTCGAGGATATCATGTACGGCCATGACCTGTCGA
DNA 4: ATGCGGCCAAGCTATCGTACATGATATCCTCGAGCGGTCCTGTTGCACACTCTGAATAGCCGAATTCTTAGGGTTAGGGTTAACA
modifications: amino C6 dT at dye sites of the daughter strands
B3: binds [3].
